Consider 16 molecules from US20200392228A1 (PANDION OPERATIONS, published 2020).

Test [1] addresses T1, human MAdCAM expressed on cells (human, UniProt Q13477 19-382).
T1 construct: whole, on cells; also called MADCAM1
T1 sequence (looked up): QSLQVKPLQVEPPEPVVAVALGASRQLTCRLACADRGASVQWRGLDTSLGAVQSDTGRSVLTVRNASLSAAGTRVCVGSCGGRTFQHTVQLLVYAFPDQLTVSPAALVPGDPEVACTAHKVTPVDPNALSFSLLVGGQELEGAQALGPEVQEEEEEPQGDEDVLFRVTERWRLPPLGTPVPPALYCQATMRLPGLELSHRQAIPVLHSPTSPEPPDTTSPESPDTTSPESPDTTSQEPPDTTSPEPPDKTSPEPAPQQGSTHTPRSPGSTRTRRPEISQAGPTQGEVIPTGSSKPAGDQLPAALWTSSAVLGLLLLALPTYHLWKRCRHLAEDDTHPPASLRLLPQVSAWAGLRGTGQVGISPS
Description: cell binding.

The target of test [2] is T2, mouse MAdCAM expressed on cells (mouse, UniProt Q61826 22-405).
T2 construct: whole, on cells
T2 sequence (looked up): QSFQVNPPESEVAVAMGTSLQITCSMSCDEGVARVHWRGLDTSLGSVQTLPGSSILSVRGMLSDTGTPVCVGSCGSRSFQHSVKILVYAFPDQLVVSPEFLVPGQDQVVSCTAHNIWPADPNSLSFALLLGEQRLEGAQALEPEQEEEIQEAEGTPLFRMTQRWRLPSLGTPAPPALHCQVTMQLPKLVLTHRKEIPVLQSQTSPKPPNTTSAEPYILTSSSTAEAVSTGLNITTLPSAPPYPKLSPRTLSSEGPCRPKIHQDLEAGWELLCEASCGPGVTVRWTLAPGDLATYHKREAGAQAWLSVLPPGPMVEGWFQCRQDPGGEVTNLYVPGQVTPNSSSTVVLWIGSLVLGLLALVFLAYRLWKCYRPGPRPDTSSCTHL
Description: cell binding.

B1: MAdCAM antibody Clone ID 10 of Table 6 (scFv) (scFv)
scFv: QVQLVQSGAEVKKPGASVKVSCKASGYTLTTWYMYWVRQAPGQGLEWMGWINPNRGATNYAQKFQGRVTMTRDTSTSTVYMELSSLRSEDTAVYYCAKGDLWGAMDVWGQGTLVTVSSGGGGSGGGGSGGGGSGGGGSDIQMTQSPSSLSASVGDRVTITCRASDNIGSWLAWYQQKPGKAPKLLIYAASSLQSGVPSRFSGSGSGTDFTLTISSLQPEDFATYYCQQGYSTPPTFGQGTKVEIK
Consider B1, for which the binding result in test [1] is on record as “binds”; in test [2] it was “no binding”.

B2: MAdCAM antibody Clone ID 26 of Table 6 (scFv) (scFv)
scFv: QVQLVQSGAEVKKPGASVKVSCKASGYTLTTWYMYWVRQAPGQGLEWMGWINPNRGATNYAQKFQGRVTMTRDTSTSTVYMELSSLRSEDTAVYYCAKGDLWGAMDVWGQGTTVTVSSGGGGSGGGGSGGGGSGGGGSDIQMTQSPSSLSASVGDRVTITCRASDNIGSWLAWYQQKPGKAPKLLIYAASSLQSGVPSRFSGSGSGTDFTLTISSLQPEDFATYYCQQGYSTPPTFGQGTKVEIK
On to B2, for which the binding result in test [1] is “binds”; in test [2], “no binding”.

B3: MAdCAM antibody Clone ID 57 of Table 6 (scFv) (scFv)
scFv: QVQLVQSGAEVKKPGASVKVSCKASGYTFTSYYMHWVRQAPGQGLEWMGIINPSGGSTSYAQKFQGRVTMTRDTSTSTVYMELSSLRSEDTAVYYCARDSVAGTGGRYYGMDVWGQGTLVTVSSGGGGSGGGGSGGGGSGGGGSDIQMTQSPSSLSASVGDRVTITCRASQGISNYFAWYQQKPGKAPKLLIYAASSLQGGVPSRFSGSGSGTDFTLTISSLQPEDFATYYCQQSYSLPYTFGQGTKLEIK
For B3, the results for the binding result in test [1] and in test [2] were “binds” and “no binding”, respectively.

B4: MAdCAM antibody Clone ID 53 of Table 6 (scFv) (scFv)
scFv: QVQLVQSGAEVKKPGASVKVSCKASGYTFTSYDINWVRQAPGQGLEWMGWMNPNSGNTGYAQKFQGRVTMTRDTSTSTVYMELSSLRSEDTAVYYCAKDSDYSNLLWDYWGQGTLVTVSSGGGGSGGGGSGGGGSGGGGSDIQMTQSPSSLSASVGDRVTITCRASQDITNDLGWYQQKPGKAPKLLIYQASSLESGVPSRFSGSGSGTDFTLTISSLQPEDFATYYCQQSYTIPLTFGQGTKVEIK
For the molecule B4, the values for the binding result in test [1] and in test [2] were “binds” and “no binding”, respectively.

B5: MAdCAM antibody Clone ID 11 of Table 6 (scFv) (scFv)
scFv: QVQLVQSGAEVKKPGASVKVSCKASGYTFTTYYMHWVRQAPGQGLEWMGGFDPEDGETIYAQKFQGRVTMTRDTSTSTVYMELSSLRSEDTAVYYCARHAVAGAVGAGYYYYGMDVWGQGTMVTVSSGGGGSGGGGSGGGGSGGGGSDIQMTQSPSSLSASVGDRVTITCRASESISNWLAWYQQKPGKAPKLLIYAASTLQSGVPSRFSGSGSGTDFTLTISSLQPEDFATYYCQQSYSVPFTFGPGTKVDIK
For the molecule B5, the results for the binding result in test [1] and in test [2] were “binds” and “no binding”, respectively.

B6: MAdCAM antibody Clone ID 54 of Table 6 (scFv) (scFv)
scFv: EVQLLESGGGLVQPGGSLRLSCAASGFTFGDYAMSWVRQAPGKGLEWVAVVSYDGTNKYYADSVKGRFTISRDNSKNTLYLQMNSLRAEDTAVYYCAKDICSSTSCYFDLWGRGTLVTVSSGGGGSGGGGSGGGGSGGGGSDIQMTQSPSSLSASVGDRVTITCRASQNINNYVNWYQQKPGKAPKLLIYDASNLETGVPSRFSGSGSGTDFTLTISSLQPEDFATYYCQQANSFPPTFGQGTRLEIK
As for B6, the figures for the binding result in test [1] and in test [2] were “binds” and “no binding”, respectively.

B7: MAdCAM antibody Clone ID 14 of Table 6 (scFv) (scFv)
scFv: QVQLVQSGAEVKKPGSSVKVSCKASGYTFTDYHIHWVRQAPGQGLEWMGGIVPRSGSTTYAQKFQGRVTITADESTSTAYMELSSLRSEDTAVYYCAKDESSGWYYFDYWGQGTLVTVSSGGGGSGGGGSGGGGSGGGGSDIVMTQSPLSLPVTPGEPASISCRSSQSLLHSNGYNYLDWYLQKPGQSPQLLIYSAYNRASGVPDRFSGSGSGTDFTLKISRVEAEDVGVYYCMQALQTPLTFGQGTKVEIK
Consider B7, for which the results for the binding result in test [1] and in test [2] were “binds” and “no binding”, respectively.

B8: MAdCAM antibody Clone ID 52 of Table 6 (scFv) (scFv)
scFv: EVQLLESGGGLVQPGGSLRLSCAASGFTFSNSDMNWVRQAPGKGLEWVAHIWNDGSQKYYADSVKGRFTISRDNSKNTLYLQMNSLRAEDTAVYYCARDRTDPGYSSAMDVWGQGTTVTVSSGGGGSGGGGSGGGGSGGGGSDIQMTQSPSSLSASVGDRVTITCRASQDIRNYLGWYQQKPGKAPKLLIYDASSLETGVPSRFSGSGSGTDFTLTISSLQPEDFATYYCQQATSLPLTFGGGTKVEIK
Turning to B8, the binding result is reported as “binds” in test [1] and “no binding” in test [2].

B9: MAdCAM antibody Clone ID 50 of Table 6 (scFv) (scFv)
scFv: QVQLVQSGAEVKKPGASVKVSCKASGYTFTSYDINWVRQAPGQGLEWMGWINPNSGTTGYAQKFQGRVTMTRDTSTSTVYMELSSLRSEDTAVYYCARSPYYYYGMDVWGQGTTVTVSSGGGGSGGGGSGGGGSGGGGSDIQMTQSPSSLSASVGDRVTITCRASHFISRWVAWYQQKPGKAPKLLIYAASTLQSGVPSRFSGSGSGTDFTLTISSLQPEDFATYYCQQSYSGISFGPGTKVDIK
On to B9, for which the binding result in test [1] is given as “binds”; in test [2], “no binding”.

B10: MAdCAM antibody Clone ID 51 of Table 6 (scFv) (scFv)
scFv: EVQLLESGGGLVQPGGSLRLSCAASGFTFNNYGMNWVRQAPGKGLEWVSRINSDGSSTSYADSVKGRFTISRDNSKNTLYLQMNSLRAEDTAVYYCARGAYYYYYMDVWGQGTLVTVSSGGGGSGGGGSGGGGSGGGGSEIVMTQSPATLSVSPGERATLSCRASQSVSGSYLAWYQQKPGQAPRLLIYATSSRASGIPARFSGSGSGTEFTLTISSLQSEDFAVYYCQQYYSGLTFGQGTKVEIK
On to B10, for which the values for the binding result in test [1] and in test [2] were “binds” and “no binding”, respectively.

B11: MAdCAM antibody Clone ID 49 of Table 6 (scFv) (scFv)
scFv: QVQLVQSGAEVKKPGASVKVSCKASGDTFTGYYIHWVRQAPGQGLEWMGWINPNSGGTNYAQKFQGRVTMTRDTSTSTVYMELSSLRSEDTAVYYCARSGLWLGSYYGMDVWGQGTLVTVSSGGGGSGGGGSGGGGSGGGGSDIQMTQSPSSLSASVGDRVTITCRASQTISIWLAWYQQKPGKAPKLLIYDASTLQSGVPSRFSGSGSGTDFTLTISSLQPEDFATYYCQQYSSYPLTFGQGTKVEIK
On to B11, for which the binding result in test [1] was “binds”; in test [2], “no binding”.

B12: MAdCAM antibody Clone ID 55 of Table 6 (scFv) (scFv)
scFv: QVQLVQSGAEVKKPGASVKVSCKASGYTFTSYYMHWVRQAPGQGLEWMGIIDPSGGSTSYAQKFQGRVTMTRDTSTSTVYMELSSLRSEDTAVYYCAREEWSSGGVGYFDYWGQGTLVTVSSGGGGSGGGGSGGGGSGGGGSDIQMTQSPSSLSASVGDRVTITCRASQGISSYLAWYQQKPGKAPKLLIYATSSLQTGVPSRFSGSGSGTDFTLTISSLQPEDFATYYCQQTYSIPITFGQGTRLEIK
As for B12, the binding result in test [1] is “binds”; in test [2], “no binding”.

B13: MAdCAM antibody Clone ID 13 of Table 6 (scFv) (scFv)
scFv: EVQLLESGGGLVQPGGSLRLSCAASGFTFDDYAMHWVRQAPGKGLEWVSYIDASGTTIYYADSVKGRFTISRDNSKNTLYLQMNSLRAEDTAVYYCAKDQAAAGYWYFDLWGRGTLVTVSSGGGGSGGGGSGGGGSGGGGSDIQMTQSPSSLSASVGDRVTITCQASQDISNYLNWYQQKPGKAPKLLIYKASTLESGVPSRFSGSGSGTDFTLTISSLQPEDFATYYCQQSYSTPITFGQGTRLEIK
With B13, the binding result in test [1] is recorded as “binds”; in test [2] it was “no binding”.

B14: MAdCAM antibody Clone ID 8 of Table 6 (scFv) (scFv)
scFv: EVQLLESGGGLVQPGGSLRLSCAASGFMFGDYAMHWVRQAPGKGLEWVSAISGSGGSTYYADSVKGRFTISRDNSKNTLYLQMNSLRAEDTAVYYCAKDLVVAGIWYFDLWGRGTLVTVSSGGGGSGGGGSGGGGSGGGGSDIQMTQSPSSLSASVGDRVTITCRASQGISNNLNWYQQKPGKAPKLLIYDASSLESGVPSRFSGSGSGTDFTLTISSLQPEDFATYYCQQTHSFPSTFGQGTKLEIK
For the molecule B14, the values for the binding result in test [1] and in test [2] were “binds” and “no binding”, respectively.

B15: MAdCAM antibody Clone ID 15 of Table 6 (scFv) (scFv)
scFv: QVQLVQSGAEVKKPGSSVKVSCKASGYTFTNYYMHWVRQAPGQGLEWMGGIIPIVDRVKYAQKFQGRVTITADESTSTAYMELSSLRSEDTAVYYCAKGRYTVNYYYGMDVWGQGTTVTVSSGGGGSGGGGSGGGGSGGGGSDIQMTQSPSSLSASVGDRVTITCQANQDISNYLNWYQQKPGKAPKLLIYRASKLEAGVPSRFSGSGSGTDFTLTISSLQPEDFATYYCQQSSEIPYSFGQGTKLEIK
As for B15, the binding result in test [1] is “binds”; in test [2] it was “no binding”.

B16: MAdCAM antibody Clone ID 58 of Table 6 (scFv) (scFv)
scFv: QVQLVQSGAEVKKPGASVKVSCKASGYTFTGYYMHWVRQAPGQGLEWMGIINPSGGNTKYAQKFQGRVTMTRDTSTSTVYMELSSLRSEDTAVYYCTTADYYYYMDVWGKGTTVTVSSGGGGSGGGGSGGGGSGGGGSDIQMTQSPSSLSASVGDRVTITCRASQGISNYLAWYQQKPGKAPKLLIYAASSLQSGVPSRFSGSGSGTDFTLTISSLQPEDFATYYCQQYYSNADFGQGTKVEIK
B16: the binding result in test [1] is “binds”; in test [2], “no binding”.
